From the nanobody polyreactivity screen of Harvey et al. (2022) come the findings set out here.

The data set is described as follows: yeast display, Sf9 membrane polyspecificity reagent, FACS + sequencing; frameworks hold sequencing errors. A digest of the protocol:
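In a synthetic yeast display library (Saccharomyces cerevisiae BJ5465), nanobody expression was induced with galactose for 36–48 hours. FACS gates were set low and high (top ~1%) using anti-HA fluorescence for expression and streptavidin fluorescence for binding of the Sf9 membrane reagent. Each polyreactivity label is drawn from the gate of origin.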
Consider “QDQHVESGGGLVQAGGSLRLSCAASARIFVPYAMGWYRQAPGQERELVAAFSWRGGSTNYADSVKGRFTISRDNAKNTVYLQLNSLIPEDTAVYYCAAVPVRYRYSYGYYYWGQGTQVSVSS”, for which the “polyreactivity (PSR sort gate)” value is given as “high polyreactivity”.

On to “QDQHVESGGGLVQAGGSLRLSCAASGITSKNYAMGWSRQAPGKERELVAVISGRGGSTYYADSVKGRFTITRDNAKNTVYLQMNCLKPEDTAVYYCAAYGNQRRGAYPYKYDYWGQGTQVTVSS”, for which the “polyreactivity (PSR sort gate)” value was “high polyreactivity”.

As to “QDQHVESGGGLVQAGGSLRLSCAASGLTFAVYTMGWYRPAAGKERELVAAITWDGGITYYADSVKGRFTISRDNAKNTVYLQMNSLKPEDTAVYYCAADSREVSTTAYYYWGQGTQVTLSS”, the “polyreactivity (PSR sort gate)” value is on record as “low polyreactivity”.

Consider “QDQHVESGGGLVQAGGSLRLSCAASGLTFHRYAMGWSRQAPGKERELVAAINYSGGRTYYADSVKGRFTISRDNAKNTVYLLMNSLKPEDTAVYYCAGYDYWGQGTQVTVSS”, for which the “polyreactivity (PSR sort gate)” value is “high polyreactivity”.

With “QDQHVESGGGLVQAGGSLRLSCAASGRTFAGYAMGWYRQAPGKERELVATISGRGGSTSYADSVKGRFTISRDNAKNTVYLQMNSLIPEDTAVYYCAKASWYKYKYDYWGQGTQVTVSS”, the “polyreactivity (PSR sort gate)” value is reported as “high polyreactivity”.

In the case of “QDQHVESGGGLVQAGGSLRLSCAASGRTFYQYAMGWYRQAPGKERELVAVINGGGSTNYADSVKGRFTISRDNAKNTVYLQMNSLKPEDTAVYYCNAGSVSDRQMDYWGQGTQVTVSS”, the “polyreactivity (PSR sort gate)” value is on record as “low polyreactivity”.

Turning to “QDQHVESGGGLVQAGGSLRLSCAASGRTFYSYTMGWYRPPPGKERELVAAINRSGGRTYYADSVKGRFTISRDNAKNTVYLQRNSLKPEDTAVYYCNALEYYRFDYWGQCTQVTVSS”, the “polyreactivity (PSR sort gate)” value is “high polyreactivity”.

Take “QDQHVESGGGLVQAGGSLRLSCAASGSIFNYYAMGWYRQAPGKEREFVAAISRSGGSTYYADSEKGRFTISRDNAKNTVYLEMNSLKPEDTAVYYCNAYSYSEAGDDGDYWGQGTQVTVSS”: the “polyreactivity (PSR sort gate)” value is recorded as “low polyreactivity”.

Turning to “QDQHVESGGGLVQAGGSLRLSCAASGSTFRKYAMGRSRQAPGKERELVAAISWSGGRTYYADSVKGRFTISRDNAKKTFYLQLNSLKPEDTAVYYCAASIPGTRSDGYWGQGTQVTVSS”, the “polyreactivity (PSR sort gate)” value was “high polyreactivity”.

With “QDQHVESGGGLVQAGGSLRLSCAASGSTFTGYDMGRYRQAPGKERELVAAISWNGGSTYYADSVKGRFTISRDNAKNTVYLQMNSLKPEDTAVYYCAKVTLTHSRFRYYYWGQGTQVTVSS”, the “polyreactivity (PSR sort gate)” value is given as “high polyreactivity”.

In the case of “QDQHVESGGGLVQAGGSLRLSCAASRRTIDLYAMGWYRQAPGKERELVAAITKGGGSTYYADSVKGRFTISRDNATNTVYLQMNSLKPEDTAVFYCAARKYKRIYRISSGIGYYWGQGTQVTVSS”, the “polyreactivity (PSR sort gate)” value is listed as “high polyreactivity”.

Consider “QDQHVESGGGLVQAGGSLRLSCDASGFIFSYYTMGCYRQAPGKERELVAAIRSSGGSTYADSVKGRFTISRDNAKNTVYLQMTSLKPEDTAVYYCAAVQTWRWVYARDYWGQGTQVTVSS”, for which the “polyreactivity (PSR sort gate)” value is on record as “high polyreactivity”.

As for “QDQHVESGGGLVQARGSLRLSCAASGRIFANKAMGRYRQAPGKERELVAAISRSGVSTYYADSVKGRFTISRDNAKNTVYLQMNSLKPEDSAVYYCAARWRSGFTSGDDWGQGTQVTVSA”, the “polyreactivity (PSR sort gate)” value is given as “low polyreactivity”.

“QDQHVESGGGLVQARGTLRLSCAASGFTFYHYAMGWSRQAPGTERELVAGISHRGASTYYADSVKGRFTISRDNAKNTVYLQMNSLKPEDTAVYYCNAYRPYRNHALIGDGYWGQGTQVTVSS”: the “polyreactivity (PSR sort gate)” value was “high polyreactivity”.

For “QDQHVESVGGLVQAGGGLPLSCAASGRTFTYNAMGWYRQPPGKERELVAAITSGGTTNYADSVKGRFTISRDNAKNTVYLQMNSLKQEDTAVYYCAARRVYYSYRRYYYWGQGTQVTVSS”, the “polyreactivity (PSR sort gate)” value is listed as “low polyreactivity”.

In the case of “QDQHVETGGGLVQAGGSLRLSCAASGSIFFLYMGWYRKAHGKETELVATISSGGSTNYADSVMGRFTISRDNAKHTVYLQMNSLKPVATAVYYFNARGSERLDTYSLYDYWGQGTQVTVSS”, the “polyreactivity (PSR sort gate)” value is listed as “low polyreactivity”.

For “QDQLEDSGGGLVQAGGSLRLSCAASGRTFTLYAMGWSRQAPGKERELVASISRSGGSTYYADSVKGRFTISRDNAKNTVYLQMNSVKPEDTAVDYCAARRFAWLFIYDYWGQGTQVTVSS”, the “polyreactivity (PSR sort gate)” value is given as “high polyreactivity”.

Turning to “QDQLEESGGCLVQAGGSLRLSCAASGRIFYGYVMRWYRQAPGKERELVAAINQSGTSTYYADSVKGRFTISRDYAKNTVYLQMNSLKPEDTAVYYCAKDWAYRRHWVGFYYWGQGTQVTVSS”, the “polyreactivity (PSR sort gate)” value is listed as “low polyreactivity”.

For the sequence “QDQLEESGGGLVQAGGSLRLSCAASGRNFYGYVMGWYRQAPGKERELVAAISSGGSTYYADSVKGRFTISRDNAKNTVYLQMNSLKPEDTAVYYCNADWKSYRGPKFDYWGQGTQVTVSS”, the “polyreactivity (PSR sort gate)” value is on record as “low polyreactivity”.

For the sequence “QDQLEESGGGLVQAGGSLRLSCAATGITFSSNAMGWYRQAPGKERELVAAISWSGGSTYYADSVKGRFTISRDYAKNTVYLQMNSLKPEDTAVYYCNASKHNPYGGDYWGQGTQVTVSS”, the “polyreactivity (PSR sort gate)” value is “high polyreactivity”.

Consider “QDQLGDSGGGLVQAGGSLRLSCAASGFTFGKYAMGWYRQAPGKERELVAAISWSGASTYYADSVKGRFTISRDNAMNTVYLQMNSLKAEDTALYYCAKRDYSYPWFRDYYYWGQGTLVTVSS”, for which the “polyreactivity (PSR sort gate)” value was “low polyreactivity”.

Regarding “QDQLGDSGGGLVQAGGSLRLSCAASGSTYSVYTMGWYRQAPGKERELVAGITSNAGSTYYADSVKGRFTISRDNAMNTVYLEMNRLKPEDTAVYYCNADRWVRTTYDYWGQGTQVTVSS”, the “polyreactivity (PSR sort gate)” value is given as “high polyreactivity”.

For “QDQLVDSGAGLLQAGGSLRLSCAASGFTFYGYAMGWYRQAPGKERELVASISWSGGTTYYADSVKGRFTISRDNAKNTVYLQMNSLKPEDTAVYYCNAVRYRYGVFPYYYWGQGTQVTESS”, the “polyreactivity (PSR sort gate)” value is “high polyreactivity”.

Take “QDQLVDSGGGLVQAGGSLRLICAASGRIFHCYAMGWYRQAPGKERELVAAIRASGGRTYYADSVKGRFTISRDNAKNTVYVQMNSLKPEDPAVYYCGADSVKYGGDYWGQGTQVTVSS”: the “polyreactivity (PSR sort gate)” value is on record as “high polyreactivity”.

Take “QDQLVDSGGGLVQAGGSLRLSCAASGFIFWYYAMGWYRQEPGKERELVAAITSGGNTNYADSVKGRFTISRDNAKNTFYLQMNSLKPEDTAVYYCATGRASGREHDSWGHGTQVTVSS”: the “polyreactivity (PSR sort gate)” value is recorded as “low polyreactivity”.

As to “QDQLVDSGGGLVQAGGSLRLSCAASGRTFESYAMGWYRQAPGKERELVAAISYSGGSTYYADSVKGRFTISRDNAKNTVYLQMNSLKPEDTAVYYCAVRWRYKYDYWGQGTQVTVSS”, the “polyreactivity (PSR sort gate)” value was “high polyreactivity”.

As to “QDQLVDSGGGLVQAGGSLRLSCAASGSTGTYMGWYRQAPGKERELVAAIDNICDNTYNADSVKGRFTISRDNAKNTVYLQMNSLIPEDSAVYYCAADYYVYYPWLFEYDYWGQGTQVTVSS”, the “polyreactivity (PSR sort gate)” value is “low polyreactivity”.

As for “QDQLVDSGGGLVQAGGSLRLSCDASGIFDYYVMGWYRQAPGTERELVAAISKSVGSTYYADSVKGRFTISRDNAKNTVYLQMNSLKPEDTAVYYCAVENRYRFGYWGQGTQVTVSS”, the “polyreactivity (PSR sort gate)” value is recorded as “low polyreactivity”.

As for “QDQLVDSGGGLVQAGGSLRLSSSASGLIFYKYAMGWYRQAPGKERELVAAISSSGGSTYYADSVKGRFTISRDTAKITVYLQMNSLKPDDTAVYYCAARTNRRGYNYWGQGTQVTVSS”, the “polyreactivity (PSR sort gate)” value is “high polyreactivity”.

Take “QDQLVEAGGGLVQAGGSLRLSCAASGRIFYPDAMVWYRQAPGKERELVAAIRRSGVDTYYADSVKVRFTISRDNAKNTVSLQRNSLKPEDTAVYYCAADPYWFFPHYDSWGQGTQVTVSS”: the “polyreactivity (PSR sort gate)” value is reported as “low polyreactivity”.
